Residue numbers refer to the chain shown, from its start. Where no end group is shown, it is not given here. [ ]: non-standard residue; d: D form. The star is where a group is joined. 5FAM = O=C1OC2(c3ccc(O)cc3Oc3cc(O)ccc32)c2ccc(C(=O)*)cc21; Me2 = dimethyl on lysine side chain; PEG = not defined here
Tests used:
Assay in all cases: FP
[1] = biological target: T1, GST-tagged UHRF1 TTD–PHD R295A/R296A ( (printed UniProt entry is …, UniProt Q96T88 125-364, R295A | R296A))
T1 sequence: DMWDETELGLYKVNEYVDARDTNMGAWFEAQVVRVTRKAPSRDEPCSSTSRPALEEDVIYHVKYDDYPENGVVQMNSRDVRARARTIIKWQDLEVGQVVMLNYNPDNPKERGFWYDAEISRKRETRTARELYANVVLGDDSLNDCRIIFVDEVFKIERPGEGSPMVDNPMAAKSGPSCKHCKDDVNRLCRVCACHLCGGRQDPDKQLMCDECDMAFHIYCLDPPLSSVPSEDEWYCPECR

[2] = biological target: T2, GST-tagged UHRF1 TTD–PHD S298E ( (printed UniProt entry is …, UniProt Q96T88 125-364, S298E))
T2 sequence: T1 sequence with A171R, A172R, S174E

[3] = biological target: T3, GST-tagged UHRF1 TTD-L2 (a.a. 125–301) ( (printed UniProt entry is …, UniProt Q96T88 125-301))
T3 chain: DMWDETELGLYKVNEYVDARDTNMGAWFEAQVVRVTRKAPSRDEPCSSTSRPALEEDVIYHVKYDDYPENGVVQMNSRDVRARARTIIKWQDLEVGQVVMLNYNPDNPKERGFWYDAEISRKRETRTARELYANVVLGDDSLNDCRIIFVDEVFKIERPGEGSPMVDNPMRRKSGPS

[4] = biological target: T4, GST-tagged UHRF1 TTD–PHD (a.a. 125–364) ( (printed UniProt entry is …, UniProt Q96T88 125-364))
T4 chain: T1 sequence with A171R, A172R

[5] = biological target: T5, GST-tagged UHRF1 tandem Tudor domain (TTD, a.a. 125–285) ( (printed UniProt entry is …, UniProt Q96T88 125-285))
T5 chain: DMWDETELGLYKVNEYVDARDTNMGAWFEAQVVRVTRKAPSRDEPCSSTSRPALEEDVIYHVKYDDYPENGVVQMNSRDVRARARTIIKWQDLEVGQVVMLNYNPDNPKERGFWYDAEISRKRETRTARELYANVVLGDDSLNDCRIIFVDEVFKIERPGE

[6] = biological target: T6, GST-tagged chromodomain Y-like protein isoform 2 (CDYL1b) chromodomain ( (printed UniProt entry is …))
T6 chain: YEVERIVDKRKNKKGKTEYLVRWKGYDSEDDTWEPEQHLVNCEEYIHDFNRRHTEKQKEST

MPP8 chromo = biological target: T7, MPP8 chromo (Homo sapiens)
T7 chain: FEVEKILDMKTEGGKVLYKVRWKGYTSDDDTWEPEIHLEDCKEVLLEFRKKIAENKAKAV

[7] = biological target: T8, UHRF1 full-length (a.a. 1–793), MBP fusion ( (printed UniProt entry is …, UniProt Q96T88 1-793))
T8 chain: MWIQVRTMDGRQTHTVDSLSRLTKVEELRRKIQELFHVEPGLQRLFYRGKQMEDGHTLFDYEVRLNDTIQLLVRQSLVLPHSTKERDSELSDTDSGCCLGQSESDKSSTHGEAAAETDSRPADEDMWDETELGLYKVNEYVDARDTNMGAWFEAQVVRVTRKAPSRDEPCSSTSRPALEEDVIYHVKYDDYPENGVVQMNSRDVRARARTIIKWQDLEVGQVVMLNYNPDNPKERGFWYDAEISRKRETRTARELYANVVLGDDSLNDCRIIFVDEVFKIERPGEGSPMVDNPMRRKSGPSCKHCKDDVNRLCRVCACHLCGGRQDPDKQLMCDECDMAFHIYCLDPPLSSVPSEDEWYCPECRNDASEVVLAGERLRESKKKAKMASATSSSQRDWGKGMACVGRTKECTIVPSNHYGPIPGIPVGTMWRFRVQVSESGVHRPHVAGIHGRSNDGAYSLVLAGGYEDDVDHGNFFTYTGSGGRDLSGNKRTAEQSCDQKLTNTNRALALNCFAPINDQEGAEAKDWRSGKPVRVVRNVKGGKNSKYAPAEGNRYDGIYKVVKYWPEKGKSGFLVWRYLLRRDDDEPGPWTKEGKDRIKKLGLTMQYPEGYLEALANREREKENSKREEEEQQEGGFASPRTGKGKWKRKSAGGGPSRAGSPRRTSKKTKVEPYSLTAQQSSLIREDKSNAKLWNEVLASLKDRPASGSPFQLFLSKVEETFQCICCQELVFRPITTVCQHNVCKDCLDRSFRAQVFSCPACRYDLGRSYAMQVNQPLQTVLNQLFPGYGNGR

B1: FAM-LIG1(118–130)K126me2 peptide (peptide)
peptide: {FAM}-IPKRRTARK(Me2)QLPK
modifications: not fully specified (C-terminus); printed as FAM-LIG1(118–130)K126me2 peptide
Kd [1]: 8 nM
Kd [2]: 10 nM
Kd [3]: 10 nM
Kd [4]: 10 nM
Kd [5]: 40 nM
Kd [6]: 6500 nM
Kd (MPP8 chromo): 32000 nM

B2: FAM-LIG1(118–130)K126me2-PEG-CPP (peptide)
peptide: 5FAM-IPKRRTARK(Me2)QLPK[PEG][dK][dK][dK][dR][dK][dV]-NH2
modifications: reading uncertain
Kd [7]: 8 nM

Reference: paper PMC7585203 (2020)
